The values below are quoted from earlier work in PMC6661118.

Read-outs that look alike come from different tables or passages of the source.

For orientation: Kd means the free concentration of one partner at which half of the binding sites on the other are occupied at equilibrium, for simple one-to-one binding.

Data set [1] has as its target MDM2 (Homo sapiens) (UniProt Q00987).
The target is the same in data set [2]. This is another data set of the same source.

MDM2 (Homo sapiens), sequence (Q00987 whole entry): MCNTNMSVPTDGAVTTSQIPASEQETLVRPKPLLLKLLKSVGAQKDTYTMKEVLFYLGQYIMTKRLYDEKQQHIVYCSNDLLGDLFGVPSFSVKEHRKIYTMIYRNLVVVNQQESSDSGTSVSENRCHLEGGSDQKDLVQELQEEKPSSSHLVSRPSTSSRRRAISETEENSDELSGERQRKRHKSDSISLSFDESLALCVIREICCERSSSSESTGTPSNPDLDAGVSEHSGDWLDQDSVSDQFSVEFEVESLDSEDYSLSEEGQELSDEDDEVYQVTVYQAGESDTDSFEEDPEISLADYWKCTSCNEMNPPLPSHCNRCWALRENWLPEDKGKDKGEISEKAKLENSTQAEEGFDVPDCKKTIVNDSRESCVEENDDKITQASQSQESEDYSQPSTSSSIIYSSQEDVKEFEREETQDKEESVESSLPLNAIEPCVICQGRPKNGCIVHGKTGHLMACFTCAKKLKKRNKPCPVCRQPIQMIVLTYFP

In the case of p53 (from UniProt P04637), in the data set with MDM2 (Homo sapiens) [1], the Kd is 410 nM.

Consider p53-SAH-8 (from UniProt P04637), for which, in the data set with MDM2 (Homo sapiens) [2], the Kd was 55 nM.
